Laboratory results as given in patent CN110172090A.

B1: 抗人OX40单克隆抗体 (杂交瘤OX401M) (antibody, part only; not given: constant regions, V domains shown, part only)
VH: QVQLAQPGAELVRPGASVKQYCKASGYSGSSYTIHWVKQTPSRGLEWIGAIYPGNGDTSWNQKFKGKATITADKSSSTAYMRLSSLTSEDSAISYCARSTYYYGAYYFDYWGQGSTL

Legend:
[1] = biological target: OX40 (Kd检测ELISA法的抗原) (human) (UniProt P43489); assay: ELISA-based Kd method (ELASA法)
[2] = biological target: 人OX40 (膜表面过表达人OX40的293T细胞系) (human) (UniProt P43489); assay: flow cytometry on 293T cells overexpressing human OX40
[3] = biological target: 人OX40 (膜表面过表达人OX40的293T细胞系) (human) (UniProt P43489); assay: flow cytometry on 293T cells overexpressing human OX40, PE goat anti-mouse secondary

Row | Molecule | Kd [1] | EC50 [2] | EC50 [3]
1 | CD40 Monoclonal Antibody (HB14), PE, Catalog#CD4004, Invitrogen | 9.8 nM | 2.5 nM | –
2 | B1 | 0.0273 nM | – | 0.0125 nM
